Measured values reported in publication doi:10.1101/2025.01.06.631460 (bioRxiv, 2025).

Target: the molecule itself
Assay: single molecule photobleaching

B1: CNGC14-GFP (natural protein, Arabidopsis thaliana, UniProt Q9SJA4 1-726, looked up)
chain: MEFKRDNTVRFYGDEKQTIEVGEKRVPLFKSTTAPFMKQEVLPKKSKTRLKIPRFGRFKVFPENFEIERDKILDPGGDAVLQWNRVFLFWCLVALYVDPLFFFLSSVKRIGRSSCMTTDLKLGIVITFFRTLADLFYVLHIVIKFRTAYVSRTSRVFGRGELVKDPKLIARRYLRSDFIVDLIACLPLPQIVSWFILPSIRSSHSDHTTNALVLIVLVQYIPRLYLIFPLSAEIIKATGVVTTTAWAGAAYNLLQYMLASHILGSAWYLLSIERQATCWKAECHKESVPLQCVTDFFDCGTLHRDDRNNWQNTTVVFSNCDPSNNIQFTFGIFADALTKNVVSSPFLEKYLYCLWFGLQNLSSYGQNLSTSTSVLETMFAILVAIFGLVLFALLIGNMQTYLQSITVRLEEWRLKRRDTEEWMGHRLLPQNLRERVRRFVQYKWLATRGVDEETILHSLPADLRRDIQRHLCLDLVRRVPLFAQMDDQLLDAICERLASSLSTQGNYIVREGDPVTEMLFIIRGKLESSTTNGGRTGFFNSITLRPGDFCGEELLAWALLPKSTVNLPSSTRTVRALEEVEAFALQAGDLKFVANQFRRLHSKKLQHTFRYYSHQWRTWAACFVQVAWRRYKRKKLAKSLSLAESFSSYDEEEAVAVAATEEMSHEGEAQSGAKARHHTSNVKPHFAATILASRFAKNTRRTAHKLKDVEIPMLPKPDEPDFSVDD
  stoichiometry N: 4
